Here are results for 15 sequences from the supplement of paper PMC12764529.

± gives the half width of the 95% confidence interval.

Data set [1] in a line: folding stability dG unfold from trypsin proteolysis; higher = more stable. Summed up: (§1)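 How resistant each design was to proteolysis was captured as K50, inferred by Bayesian fitting of sequencing counts. Unfolding free energy was then derived relative to a sequence-predicted unfolded-state K50 and a shared folded-state K50, per protease or combined. Digestion used trypsin and chymotrypsin at 11 threefold-diluted concentrations plus a no-protease condition, on mini-proteins under 80 residues without cysteine in a PA-tagged cDNA display construct. Designs were kept only when AlphaFold2 dimer inter-PAE was above 15.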

A short description of data set [2]: folding stability dG unfold (combined trypsin and chymotrypsin); higher = more stable. Summed up:
as §1

Data set [3] is described as follows: folding stability dG unfold from chymotrypsin proteolysis; higher = more stable. The method, boiled down:
as §1

For “SAGTPEEVLQRAKELANRFQDRARDNGMDVKVDITQVEPNRIRINIEMRPPNGRRHRMPIEIELPKDDISAG [r5_994_TrROS]”, the “folding stability dG unfold” value in data set [1] was determined as 1.27 ± 0.079 kcal/mol; in data set [2], 1.43 ± 0.2 kcal/mol; in data set [3] it was 1.65 ± 0.036 kcal/mol.
With “SAGTTSVVSTETTEFPDGTVTTTTTVLYLEPEGDGYVKVSETRVTTTYTIDPATGTVVTSTTTTTPLAGSAG [r5_828_JUSTAS]”, the entries for the “folding stability dG unfold” value in data set [1], in data set [2] and in data set [3] were 1.79 ± 0.063 kcal/mol, 1.99 ± 0.098 kcal/mol and 2.17 ± 0.063 kcal/mol, respectively.
For “SAGTTVTLTDPVTGNVTTITKDPTDPNLWTVTLPDGSSVTAKRSEIAKKLGLSPEKLLSDYPVPSVSLTSAG [r5_156_JUSTAS]”, in that order: 1.94 ± 0.031 kcal/mol, 1.94 ± 0.038 kcal/mol and 1.88 ± 0.024 kcal/mol.
Taken in the same sequence, the figures for “SAGTVKVSEDGDKLTVTMTAPPESPALVEALIQALKDAGLTIVTAEITTEPGEGDLVRTTITLTLKPPASAG [r5_739_JUSTAS]” were 2.33 ± 0.082 kcal/mol, 2.46 ± 0.06 kcal/mol and 2.545 ± 0.024 kcal/mol.
For “SAGVEIKTDPSKPVITITINYTSIEEAKEYIEKLVKEIGAKEVKIKEDPNSNKITATIDLKDIKKIEKLSAG [r5_598_JUSTAS]”, in that order: -0.144 ± 0.52 kcal/mol, 1.09 ± 0.41 kcal/mol and 1.46 ± 0.19 kcal/mol.
Consider “SAGVIPESLIEKVETEEYPGGITRSTYTYPDGVTVTVEETKVPGTDGITRKITVYPPTNTTTETTVTDPSAG [r5_802_JUSTAS]”, for which the “folding stability dG unfold” value in data set [1] is 0.29 ± 0.098 kcal/mol; in data set [2], 0.44 ± 0.12 kcal/mol; in data set [3], 0.348 ± 0.16 kcal/mol.
For “SAGVKELAEEIADEFQKPGWQVEVEVDPGDGTITVQMRMPDYQYEIEIKITPENGKPQVDIKWRPPNDSAGG [r19_2_TrROS]”, the “folding stability dG unfold” value stood at 1.51 ± 0.16 kcal/mol in data set [1], 1.56 ± 0.31 kcal/mol in data set [2] and 1.49 ± 0.11 kcal/mol in data set [3].
Turning to “SAGVPLSSVPESEVAEEVEFPKHGLKLLRDTATGKWYLQEGDTATVIPPEEAAKLLAEIKAPKPSPELLSAG [r14_516_JUSTAS]”, the results for the “folding stability dG unfold” value in data set [1], in data set [2] and in data set [3] were 1.33 ± 0.073 kcal/mol, 1.2 ± 0.082 kcal/mol and 1.01 ± 0.083 kcal/mol, respectively.
Taken in the same sequence, the figures for “SAGVTITTNPESGTVTITIPFPDGSSATIELNYGGSLPTKPSITSFKVNPYDNGKPIIPADELVKKILSSAG [r5_842_TrMRF]” were 0.96 ± 0.056 kcal/mol, 1.39 ± 0.35 kcal/mol and 1.57 ± 0.13 kcal/mol.
For “SAGWFVRIEIEPPGEKREIMIPFSWDEARELLKDLGLEVEVDPESPTFEFKLPNYQIKVEFMPIPPGQMSAG [r5_248_TrROS]”, in that order: 2.34 ± 0.12 kcal/mol, 3.21 ± 0.12 kcal/mol and 3.6 ± 0.049 kcal/mol.
Regarding “SAGWHEIEIEIMIPFPKENAEELAKEIAEEIARMHGFKITNIEVQVYPTDGEYYVMIPVKIRIPPPNDTSAG [r14_219_TrROS]”, the “folding stability dG unfold” value worked out at 2.81 ± 0.061 kcal/mol in data set [1], 3.05 ± 0.11 kcal/mol in data set [2] and 3.15 ± 0.056 kcal/mol in data set [3].
For the sequence “SAGWRMTIWVQYELPPGMPPERAKEAVRDIIRDIMRRFGLPMPPGMKIDIEPVEPSNDYVYYKVTIEFPSAG [r14_735_TrROS]”, the “folding stability dG unfold” value in data set [1] was 4.37 ± 0.26 kcal/mol; in data set [2], 5.22 ± 0.33 kcal/mol; in data set [3], 5.52 ± 0.15 kcal/mol.
“SAGYEIVKEIAEELGFPVEIDRIEYDPDHGTIKFTARMRPKDGKKYRVQIMIHVPPENGNVDIELEYVPSAG [r5_929_TrROS]”: the “folding stability dG unfold” value worked out at 2.09 ± 0.074 kcal/mol in data set [1], 2.56 ± 0.2 kcal/mol in data set [2] and 2.6 ± 0.16 kcal/mol in data set [3].
For “SAGYFIMVKFEFPDGGPQEFMIWIPPDENPEKLTKEEAKEVAKSIANSNQDQGGFEVKDVEIMPPDDMSAGG [r19_27_TrROS]”, the results for the “folding stability dG unfold” value in data set [1], in data set [2] and in data set [3] were 0.611 ± 0.1 kcal/mol, 1.58 ± 0.15 kcal/mol and 2.03 ± 0.088 kcal/mol, respectively.
For “SAGYIRIEKDNDYYKIEFLFPPNDPSLIENLVEAIRQKGWKVKDVEVEVEPNKDGMYRVEIDFKIKPPDSAG [r5_739_TrROS]”, in that order: 2.53 ± 0.12 kcal/mol, 2.88 ± 0.17 kcal/mol and 3.31 ± 0.099 kcal/mol.
